Source: paper PMC3630358

Molecular target: TraF/VirB10 C-terminal domain starting at N161 (elastase-cleaved, C-terminal Strep-tag) (Escherichia coli (plasmid pKM101)) (UniProt Q46705)
Test: cryo-EM structure

stoichiometry N: 14
Substance: TraF/VirB10 C-terminal domain starting at N161 (elastase-cleaved, C-terminal Strep-tag) (from UniProt Q46705 161-386) (domain or fragment)
